The text below walks through data of patent JP2014043405A (dated 2014).

One may read the Kd as a measure of binding affinity in units of concentration. A high value points to a looser complex.

Numbering of substitutions follows the chain as printed.

The target in experiment [1] is T1, ヒトFcγRIIa (H) (human, UniProt P12318 34-217).
T1 construct: extracellular domain; also called FcγRIIa H型
T1 sequence (looked up): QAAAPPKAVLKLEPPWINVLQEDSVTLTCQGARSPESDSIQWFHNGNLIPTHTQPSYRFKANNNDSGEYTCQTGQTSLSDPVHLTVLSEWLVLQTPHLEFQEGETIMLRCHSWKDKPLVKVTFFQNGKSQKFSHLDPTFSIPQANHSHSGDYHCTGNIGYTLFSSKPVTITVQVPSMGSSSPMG
The experiment is described as follows: SPR, KD. A general note: SPR reads the build-up and loss of mass on a sensor chip optically.

The target in experiment [2] is T2, ヒトFcγRIIa (R) (human, UniProt P12318 34-217).
T2 construct: extracellular domain; N-glycans trimmed with Endo F1/F2/F3 for the crystals; also called FcγRIIa R型
T2 sequence (looked up): T1 sequence (looked up) with H134R
The experiment is described as follows: SPR, KD.

Experiment [3] concerns the target T3, ヒトFcγRIa (human, UniProt P12314 16-292). The experiment is described as follows: SPR, KD.
The target in experiment [4] is T2, ヒトFcγRIIa (R). The experiment is described as follows: SPR, KD; reference IL6R-B3/IL6R-L.
For experiment [5], the target named is T4, ヒトFcγRIIb (human, UniProt P31994 43-217).
T4 construct: extracellular domain; for the crystals it was expressed with kifunensine and its N-glycans trimmed with Endo F1; also called FcγRIIb細胞外領域
T4 sequence (looked up): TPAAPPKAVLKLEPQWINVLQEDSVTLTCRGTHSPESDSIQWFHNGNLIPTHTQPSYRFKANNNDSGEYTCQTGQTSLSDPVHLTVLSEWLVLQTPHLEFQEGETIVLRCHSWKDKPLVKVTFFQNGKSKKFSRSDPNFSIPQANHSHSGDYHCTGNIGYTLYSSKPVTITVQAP
The experiment is described as follows: SPR, KD; reference IL6R-B3/IL6R-L.

Experiment [6] addresses T4, ヒトFcγRIIb. The experiment is described as follows: SPR, figure legend (Fig. 6).
Experiment [7] addresses T3, ヒトFcγRIa. The experiment is described as follows: SPR, figure legend (Fig. 3).
Experiment [8] deals with T5, ヒトFcγRIIIa (F) (human, UniProt P08637 17-208).
T5 construct: extracellular domain
The experiment is described as follows: SPR, figure legend (Fig. 7).

The target in experiment [9] is T2, ヒトFcγRIIa (R). The experiment is described as follows: SPR, figure legend (Fig. 4).
Experiment [10] deals with T1, ヒトFcγRIIa (H). The experiment is described as follows: SPR, figure legend (Fig. 5).
Experiment [11] concerns the target T6, ヒトFcRn (human, UniProt P55899 24-290; P61769 21-119, limits assumed).
T6 construct: also called human FcRn; complex of human FcRn and human beta-2 microglobulin
The experiment is described as follows: SPR, figure legends of Figs. 3-11.

Experiment [12] has as its target T7, マウスFcγRI (mouse, UniProt P26151 25-297, limits assumed).
T7 construct: also called mouse FcγRI
T7 sequence (looked up): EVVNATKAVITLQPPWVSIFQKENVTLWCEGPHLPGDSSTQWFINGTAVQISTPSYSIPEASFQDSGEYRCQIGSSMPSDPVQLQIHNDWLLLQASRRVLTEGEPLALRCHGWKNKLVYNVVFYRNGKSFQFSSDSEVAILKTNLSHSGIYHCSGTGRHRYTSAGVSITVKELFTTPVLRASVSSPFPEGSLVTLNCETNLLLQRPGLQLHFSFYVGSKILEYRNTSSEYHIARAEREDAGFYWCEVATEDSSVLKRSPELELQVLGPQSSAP
The experiment is described as follows: SPR, Biacore; antibody captured on immobilised human FcRn, FcγR as analyte, pH 7.4, 25C.

The target in experiment [13] is T8, マウスFcγRIII (mouse, UniProt P08508 31-215, limits assumed).
T8 construct: also called mouse FcγRIII
T8 sequence (looked up): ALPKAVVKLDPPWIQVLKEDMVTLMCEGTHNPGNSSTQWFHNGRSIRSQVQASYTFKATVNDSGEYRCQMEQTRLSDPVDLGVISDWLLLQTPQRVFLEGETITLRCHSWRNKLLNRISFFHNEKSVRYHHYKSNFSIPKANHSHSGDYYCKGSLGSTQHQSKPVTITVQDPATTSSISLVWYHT
The description is as above.

The target in experiment [14] is T9, マウスFcγRIIb (mouse, UniProt P08101 30-210, limits assumed).
T9 construct: also called mouse FcγRIIb
T9 sequence (looked up): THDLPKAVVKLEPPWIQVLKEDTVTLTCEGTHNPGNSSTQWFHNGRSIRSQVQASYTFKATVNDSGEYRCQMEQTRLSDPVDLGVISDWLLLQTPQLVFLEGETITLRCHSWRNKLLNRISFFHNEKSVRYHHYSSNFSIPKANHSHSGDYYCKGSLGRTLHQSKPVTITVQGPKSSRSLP
The experiment is described as above.

The target in experiment [15] is T10, マウスFcRn (mouse, UniProt Q61559 22-297, limits assumed).
T10 construct: also called mouse FcRn
T10 sequence (looked up): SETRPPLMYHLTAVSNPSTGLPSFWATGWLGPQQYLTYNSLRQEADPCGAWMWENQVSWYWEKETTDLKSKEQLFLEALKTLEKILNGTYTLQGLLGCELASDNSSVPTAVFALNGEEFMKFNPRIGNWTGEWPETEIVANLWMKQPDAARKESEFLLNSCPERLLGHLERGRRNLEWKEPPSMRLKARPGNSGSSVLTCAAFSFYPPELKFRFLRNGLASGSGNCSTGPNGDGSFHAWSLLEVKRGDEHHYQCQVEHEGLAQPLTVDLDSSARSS
The experiment is described as follows: SPR, Biacore T100; antibody captured on protein L, FcRn as analyte, pH 7.0, 25C; reference Fv4-IgG1.

Experiment [16] addresses T10, マウスFcRn. The experiment is described as follows: SPR, Biacore T100, pH 7.0, 25C.

T3 sequence (P12314 16-292): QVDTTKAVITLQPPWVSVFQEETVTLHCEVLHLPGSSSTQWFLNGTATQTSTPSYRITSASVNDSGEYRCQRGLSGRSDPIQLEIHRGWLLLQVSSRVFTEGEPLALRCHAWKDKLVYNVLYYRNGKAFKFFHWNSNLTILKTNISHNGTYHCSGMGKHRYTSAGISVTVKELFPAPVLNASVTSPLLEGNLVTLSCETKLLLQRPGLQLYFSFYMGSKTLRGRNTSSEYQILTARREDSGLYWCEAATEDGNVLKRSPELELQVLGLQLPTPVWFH
T5 sequence (P08637 17-208): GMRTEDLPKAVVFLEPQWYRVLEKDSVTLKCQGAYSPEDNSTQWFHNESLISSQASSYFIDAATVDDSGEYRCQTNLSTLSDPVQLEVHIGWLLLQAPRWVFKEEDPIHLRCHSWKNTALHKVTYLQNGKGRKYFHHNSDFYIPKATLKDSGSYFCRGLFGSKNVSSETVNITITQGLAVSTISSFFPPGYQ
T6 sequence (P55899 24-290 limits assumed, chain 1 of 2): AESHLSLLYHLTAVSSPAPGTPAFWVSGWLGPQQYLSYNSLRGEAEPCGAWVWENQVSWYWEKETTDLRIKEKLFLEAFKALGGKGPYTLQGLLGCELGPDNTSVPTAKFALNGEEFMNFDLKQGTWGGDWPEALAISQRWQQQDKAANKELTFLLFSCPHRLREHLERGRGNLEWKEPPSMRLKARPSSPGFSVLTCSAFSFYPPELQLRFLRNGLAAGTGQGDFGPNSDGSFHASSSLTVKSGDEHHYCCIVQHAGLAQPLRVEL
T6 sequence (P61769 21-119 limits assumed, chain 2 of 2): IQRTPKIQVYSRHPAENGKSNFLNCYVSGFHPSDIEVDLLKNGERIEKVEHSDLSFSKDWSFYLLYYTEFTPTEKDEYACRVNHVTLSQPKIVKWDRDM

B1: IL6R-B3/IL6R-L (antibody, human IgG1)
heavy: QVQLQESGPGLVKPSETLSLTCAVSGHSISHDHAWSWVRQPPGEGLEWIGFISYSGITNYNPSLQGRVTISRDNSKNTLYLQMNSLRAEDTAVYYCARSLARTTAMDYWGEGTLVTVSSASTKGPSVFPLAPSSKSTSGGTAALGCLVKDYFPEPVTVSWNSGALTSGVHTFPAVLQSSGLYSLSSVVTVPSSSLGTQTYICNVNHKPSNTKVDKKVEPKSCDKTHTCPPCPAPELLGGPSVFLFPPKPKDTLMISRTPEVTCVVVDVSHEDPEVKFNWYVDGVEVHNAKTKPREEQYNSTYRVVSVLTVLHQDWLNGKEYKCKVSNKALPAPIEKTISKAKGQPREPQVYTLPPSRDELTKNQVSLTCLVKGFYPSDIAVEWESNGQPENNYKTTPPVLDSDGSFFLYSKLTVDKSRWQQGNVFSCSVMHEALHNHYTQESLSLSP
light: DIQMTQSPSSLSASVGDRVTITCRASQDISSYLNWYQQKPGKAPKLLIYYTSRLHSGVPSRFSGSGSGTDFTFTISSLQPEDIATYYCQQGNTLPYTFGQGTKVEIK
Regarding B1, the binding result in [1], in experiment [2] and in [3] was “binds” in each case.

B2: IL6R-BP230/IL6R-L (antibody)
chain 1: QVQLQESGPGLVKPSETLSLTCAVSGHSISHDHAWSWVRQPPGEGLEWIGFISYSGITNYNPSLQGRVTISRDNSKNTLYLQMNSLRAEDTAVYYCARSLARTTAMDYWGEGTLVTVSSASTKGPSVFPLAPSSKSTSGGTAALGCLVKDYFPEPVTVSWNSGALTSGVHTFPAVLQSSGLYSLSSVVTVPSSSLGTQTYICNVNHKPSNTKVDKKVEPKSCDKTHTCPPCPAPDLLGDDSVFLFPPKPKDTLMISRTPEVTCVVVDVSDEDGEVKFNWYVDGVEVHNAKTKPREEQDNSTYRVVSVLTVLHQDWLNGKEYKCKVSNKALPRPIEKTISKAKGQPREPQVYTLPPSRDELTKNQVSLTCLVKGFYPSDIAVEWESNGQPENNYKTTPPVLDSDGSFFLYSKLTVDKSRWQQGNVFSCSVMHEALHNHYTQESLSLSP
chain 2: not shown
Consider B2, for which the figures for the “fold enhancement of binding against IL6R-B3/IL6R-L” value in experiment [4] and in experiment [5] were about 1.9 fold and about 150 fold, respectively. The “fold improvement of binding activity against IL6R-B3” value in experiment [5] was 148 fold.

B3: Fv4-IgG1-F157 (antibody)
heavy: QVQLQESGPGLVKPSETLSLTCAVSGHSISHDHAWSWVRQPPGEGLEWIGFISYSGITNYNPSLQGRVTISRDNSKNTLYLQMNSLRAEDTAVYYCARSLARTTAMDYWGEGTLVTVSSASTKGPSVFPLAPSSKSTSGGTAALGCLVKDYFPEPVTVSWNSGALTSGVHTFPAVLQSSGLYSLSSVVTVPSSSLGTQTYICNVNHKPSNTKVDKKVEPKSCDKTHTCPPCPAPELLGGPSVFLFPPKPKDTLMISRTAEVTCVVVDVSHEDPEVKFNWYVDGVEVHNAKTKPREEQYNSTYRVVSVLTPLHQDWLNGKEYKCKVSNKALPAPIEKTISKAKGQPREPQVYTLPPSRDELTKNQVSLTCLVKGFYPSDIAVEWESNGQPENNYKTTPPVLDSDGSFFLYSKLTVDKSRWQQGNVFSCSVLHEALHYHYTQKSLSLSP
light: DIQMTQSPSSLSASVGDSVTITCQASTDISSHLNWYQQKPGKAPELLIYYGSHLLSGVPSRFSGSGSGTDFTFTISSLEAEDAATYYCGQGNRLPYTFGQGTKVEIERTVAAPSVFIFPPSDEQLKSGTASVVCLLNNFYPREAKVQWKVDNALQSGNSQESVTEQDSKDSTYSLSSTLTLSKADYEKHKVYACEVTHQGLSSPVTKSFNRGEC
notes: also called VH3-IgG1-F157/VL3-CK
In the case of B3, the binding result in experiment [6], in experiment [7], in experiment [8], in [9], in experiment [10] and in experiment [11] was “binds” in each case. In addition, the binding result in experiment [12], in experiment [13] and in experiment [14] was “binds” in each case.

B4: Fv4-hF1 (antibody, human IgG1, kappa)
heavy: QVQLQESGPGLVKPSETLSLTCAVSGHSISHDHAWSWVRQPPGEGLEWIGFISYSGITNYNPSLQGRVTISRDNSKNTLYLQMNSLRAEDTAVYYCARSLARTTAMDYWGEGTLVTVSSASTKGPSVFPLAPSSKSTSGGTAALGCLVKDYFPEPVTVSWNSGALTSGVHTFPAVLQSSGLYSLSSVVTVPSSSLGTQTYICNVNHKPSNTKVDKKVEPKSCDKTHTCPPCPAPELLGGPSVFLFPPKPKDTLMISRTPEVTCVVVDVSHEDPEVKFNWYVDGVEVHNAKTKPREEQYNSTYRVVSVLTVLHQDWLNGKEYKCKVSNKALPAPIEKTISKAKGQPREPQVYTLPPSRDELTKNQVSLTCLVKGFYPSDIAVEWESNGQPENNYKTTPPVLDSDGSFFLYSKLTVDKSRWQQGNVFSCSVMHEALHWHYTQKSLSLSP
light: B3 light
For B4, the “fold improvement of affinity against IgG1” value in experiment [15] was about 24.7 fold. This molecule also registered a Kd in experiment [16] of 150 nM.
